What was measured:
[1] = molecular target: T1, PD1-hFc of Cynomolgus monkey (Macaca fascicularis) (Cynomolgus monkey (Macaca fascicularis), UniProt B0LAJ3 25-170); assay: ELISA on coated cynomolgus PD1-hFc
T1 construct: also called PD1 of Cynomolgus monkey

[2] = molecular target: T2, PD-1-his antigen (UniProt Q15116 25-167, limits assumed); assay: ELISA on coated PD-1-his
T2 construct: Human is implied, since cynomolgus and rat PD1 are called non-human antigens
Protocol: (§1) An ELISA plate was coated with PD-1-his antigen in a concentration of 0.25 μg/ml (100 μl per well) by incubation at 4° C. overnight.
(§2) The ELISA plate coated with the PD-1-his antigen was blocked with 1% BSA in the PBS buffer at 37° C. for 2 hours and washed with 1 xPBST buffer containing 1% Tween-20 for three times, with gently patting to dryness.
(§3) The absorbance of solution in each well was measured with the microplate reader at a wavelength of 450 nm.

[3] = molecular target: serum complement C1q (UniProt P02745 23-245; P02746 28-253; P02747 29-245); assay: Fortebio Octet BLI, H8L2 on FAB2G sensor, C1q in solution
Description: Serum complement C1q can bind to the Fc fragment of IgG antibody, thus involving in complement-dependent cytotoxicity (CDC). The safety and efficacy of a therapeutic monoclonal antibody will be affected by the binding ability of the monoclonal antibody to the serum complement C1q.
After binding for 120 seconds, the PBST buffer was applied to the FAB2G sensor for disassociation, which was kept for 180 seconds. The data was collected with the Fortebio Data Acquisition 7.0 software and analyzed with the Fortebio Data Analysis 7.0 software.

[4] = molecular target: T3, FcγRIIIa-Biotin (UniProt P08637 17-208, limits assumed, biotin (site not stated)); assay: Fortebio Octet BLI, FcγRIIIa-Biotin on SA sensor
T3 construct: also called CD16a
Description: The data was collected with the Fortebio Data Acquisition 7.0 software and analyzed with the Fortebio Data Analysis 7.0 software.

[5] = molecular target: T4, PD1 on the surface of cell membrane (293T cell line stably transfected with PD1) (UniProt Q15116 25-288, limits assumed); assay: FACS on 293T cells stably transfected with PD1
T4 construct: whole, on cells
Protocol: Step f) Each group was centrifuged at 4000 r/min at a low temperature for 5 minutes, followed by washing with the PBS buffer once and adding 200 μl PBS for suspending, thus obtaining a suspension for on-line detection.

[6] = molecular target: T4, PD1 on the surface of cell membrane …; assay: FACS competition on 293T-PD1 cells, competitor PDL1-mFc 20 nM
[7] = molecular target: T5, PD-1-hIgGFc antigen (UniProt Q15116 25-167, limits assumed); assay: competitive ELISA on coated PD-1-hIgGFc, competitor PDL2-his tag
Protocol: A 96-well ELISA plate was coated with PD-1-hIgGFc antigen in a concentration of 1.0 μg/ml (100 μl per well) by incubation at 4° C. overnight.
After the 96-well ELISA plate was washed with the PBST buffer for five times and gently patted to dryness, HRP-conjugated monoclonal mouse anti-his tag as a secondary antibody in 1:750 dilution (50 μl per well) was added for incubation at 37° C. for 1 hour.

[8] = molecular target: T2, PD-1-his antigen; assay: ELISA on coated PD-1-his; antibody at 1:3 dilution of 2 µg/ml
Protocol: as §1, §2, §3

[9] = molecular target: T5, PD-1-hIgGFc antigen; assay: competitive ELISA on coated PD-1-hIgGFc, competitor PDL1-mIgG2aFc
Protocol: A 96-well ELISA plate was coated with PD-1-hIgGFc antigen in a concentration of 0.5 μg/ml (50 μl per well) by incubation at 4° C. overnight.

T5 sequence (Q15116 25-167 limits assumed): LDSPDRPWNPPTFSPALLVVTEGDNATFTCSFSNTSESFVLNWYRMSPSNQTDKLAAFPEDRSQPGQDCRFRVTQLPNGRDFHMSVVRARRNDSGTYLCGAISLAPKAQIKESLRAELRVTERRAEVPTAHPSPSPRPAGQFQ
T2 sequence (Q15116 25-167 limits assumed): as above
T4 sequence (Q15116 25-288 limits assumed): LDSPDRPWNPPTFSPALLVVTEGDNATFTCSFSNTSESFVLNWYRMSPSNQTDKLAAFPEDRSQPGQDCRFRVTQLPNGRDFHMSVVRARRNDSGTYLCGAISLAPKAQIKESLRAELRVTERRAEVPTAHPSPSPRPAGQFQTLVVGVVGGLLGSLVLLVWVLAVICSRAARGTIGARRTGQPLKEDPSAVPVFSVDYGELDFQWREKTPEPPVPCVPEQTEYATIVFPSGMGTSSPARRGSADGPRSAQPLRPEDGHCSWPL
T3 sequence (P08637 17-208 limits assumed): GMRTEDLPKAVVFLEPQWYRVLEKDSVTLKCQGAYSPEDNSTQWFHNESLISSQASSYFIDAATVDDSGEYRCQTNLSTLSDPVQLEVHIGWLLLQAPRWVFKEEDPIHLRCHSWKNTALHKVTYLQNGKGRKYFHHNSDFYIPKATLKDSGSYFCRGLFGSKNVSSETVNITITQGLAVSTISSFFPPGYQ
Chain of serum complement C1q (P02745 23-245 limits assumed, chain 1 of 3): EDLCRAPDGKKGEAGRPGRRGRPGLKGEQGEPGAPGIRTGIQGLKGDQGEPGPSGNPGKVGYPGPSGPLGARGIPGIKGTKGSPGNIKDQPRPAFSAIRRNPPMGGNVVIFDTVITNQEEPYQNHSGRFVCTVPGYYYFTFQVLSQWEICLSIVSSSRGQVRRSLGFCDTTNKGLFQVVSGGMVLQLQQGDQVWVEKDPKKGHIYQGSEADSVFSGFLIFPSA
Chain of serum complement C1q (P02746 28-253 limits assumed, chain 2 of 3): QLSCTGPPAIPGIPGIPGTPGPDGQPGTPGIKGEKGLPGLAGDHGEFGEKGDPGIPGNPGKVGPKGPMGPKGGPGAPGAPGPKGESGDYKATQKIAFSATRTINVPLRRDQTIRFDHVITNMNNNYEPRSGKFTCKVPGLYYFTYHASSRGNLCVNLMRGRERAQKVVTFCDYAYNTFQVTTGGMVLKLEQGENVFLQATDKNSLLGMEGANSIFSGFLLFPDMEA
Chain of serum complement C1q (P02747 29-245 limits assumed, chain 3 of 3): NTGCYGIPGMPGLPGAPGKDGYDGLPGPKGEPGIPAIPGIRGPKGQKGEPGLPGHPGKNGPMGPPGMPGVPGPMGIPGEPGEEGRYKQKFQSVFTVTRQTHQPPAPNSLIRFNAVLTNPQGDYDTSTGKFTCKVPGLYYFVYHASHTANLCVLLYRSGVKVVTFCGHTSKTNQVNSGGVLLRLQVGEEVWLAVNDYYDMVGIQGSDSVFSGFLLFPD
T1 sequence (B0LAJ3 entry or part of it limits assumed, form in doubt): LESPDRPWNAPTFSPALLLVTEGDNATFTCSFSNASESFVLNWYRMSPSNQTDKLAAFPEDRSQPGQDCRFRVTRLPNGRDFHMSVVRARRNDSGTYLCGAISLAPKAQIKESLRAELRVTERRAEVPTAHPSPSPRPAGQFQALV

EC50 [1]: 0.219 nM
EC50 [2]: 0.04 nM
binding result [3]: no binding (tested: 3.13 to 200 nM)
binding result [4]: no binding (tested: 4000 nM)
EC50 [5]: 3.4 nM
EC50 [6]: 19.6 nM
EC50 [7]: 1.83 nM
absorbance at 450 nm [8]: 1.76
EC50 [9]: 0.474 nM
B1: humanized H8L2 antibody (IgG-like antibody H8L2 against PD-1) (antibody)
heavy: EVQLVQSGGGLVQPGGSLKLSCAASGFTFSSYGMSWVRQAPGKGLDWVATISGGGRDTYYPDSVKGRFTISRDNSKNNLYLQMNSLRAEDTALYYCARQKGEAWFAYWGQGTLVTVSSASTKGPSVFPLAPCSRSTSESTAALGCLVKDYFPEPVTVSWNSGALTSGVHTFPAVLQSSGLYSLSSVVTVPSSSLGTKTYTCNVDHKPSNTKVDKRVESKYGPPCPPCPAPEFLGGPSVFLFPPKPKDTLMITRTPEVTCVVVDVSQEDPEVQFNWYVDGVEVHNAKTKPREEQFNSTYRVVSVLTPLHQDWLNGKEYKCKVSNKGLPSSIEKTISKAKGQPREPQVYTLPPSQEEMTKNQVSLTCLVKGFYPSDIAVEWESNGQPENNYKTTPPVLDSDGSFFLYSRLTVDKSRWQEGNVFSCSVMHEALHAHYTQKSLSLSLGK
light: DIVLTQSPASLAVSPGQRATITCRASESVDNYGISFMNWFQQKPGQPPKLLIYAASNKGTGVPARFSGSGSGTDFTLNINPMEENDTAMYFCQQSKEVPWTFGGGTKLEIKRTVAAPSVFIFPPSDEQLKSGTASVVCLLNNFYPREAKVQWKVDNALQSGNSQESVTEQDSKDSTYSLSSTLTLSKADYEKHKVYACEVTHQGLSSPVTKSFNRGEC
notes: Expressed in 293 cells and purified on protein A; also called 18A10 H8L2

From patent publication US20190330347A1 (TAIZHOU HANZHONG BIOPHARMACEUTICS, published 2019)
